Results reported in patent publication US20220047684A1, “ENZYMES AND METHODS FOR PREVENTING AND TREATING […] IN ANIMALS” (Ecto Development Corporation, priority 2020, published 2022).

Experiments:
[1] = pNPA method esterase (carboxylesterase) activity assay of spore productions; assay type: biochemical; settings: 30° C. for 30 minutes, absorbance at 400
Experimental: Each of the identified enzymes were evaluated for esterase activity assay using pNBA method described below. Determination of carboxylesterase activity of cargo enzyme in Bacillus thuringiensis spore productions or of free enzyme productions. Three active carboxylesterases cloned into pBCm (Bt EO) and pET28a (E. coli BL21) systems: pnbA (B. subtilis), PytH2 (Sphingobium wenxiniae strain), and MsE1 (Methylobacterium sp). p-Nitrophenyl acetate was the substrate in assays for esterase activity. The hydrolysis of p-nitrophenyl acetate releases p-nitrophenol and acetate, and while p-nitrophenyl acetate is colorless, p-nitrophenol is yellow.
6 mg p-Nitrophenyl acetate (pNPA, CAS #830-03-5, MW: 181.1 g/mol) was weighed and dissolved in 1 mL methanol (CAS #67-56-1, MW: 32.04 g/mol). Stored at −20° C. and kept on ice when preparing reactions.
8.0 g sodium chloride (NaCl, CAS #7647-14-5, MW: 58.44 g/mol), 1.44 g sodium phosphate dibasic was dissolved (Na2HPO4, CAS #7558-79-4, MW: 141.96 g/mol), and 0.24 g potassium phosphate monobasic (KH2PO4, CAS #7778-77-0, 136.09 g/mol) in 800 mL DI H20, then adjust pH to 7.4 using hydrochloric acid (HCl, CAS #7647-01-0, MW: 36.46 g/mol). Make 100 mL aliquots and autoclave.
Esterase from rabbit liver (CAS #9016-18-6, Sigma E0887-powder). Store at −20° C. To prepare a stock dissolve 1 mg in 1 mL PBS, kept on ice when using.
Up to 1 mL spore production was pelleted up for 5 min at max speed. Supernatant was discarded without disturbing spore pellet and suspend pellet in ice-cold PBS. Spores kept suspended on ice until use.
The assay was run at 30° C. for 30 minutes. The assay was shaken continuously. Activity was read on (A) 400 BioTek Synergy/HTX microplate reader was used. The results of pNPA hydrolysis are shown in Table 3 depicting carboxylesterase enzyme activity for each of the five strains using pNPA hydrolysis.

[2] = Biological permethrin assay for esterase activity (activity units of esterases); assay type: biochemical; settings: esterases used in reaction mix for scud assay
Experimental: A biological permethrin assay was performed for control, and three esterases pnbA, pytH2 and MsE1. The sensitivity of scuds (Hyalella Azteca) to permethrin was tested with three esterases pnbA, pytH2 and MsE1.
For control and each of the three esterases pnbA, pytH2 and MsE1, ten scuds were exposed to permethrin and one of pnbA, pytH2 or MsE1.
• 100 μL 50% MeOH in PBS • 0.2 μg/μL
• 37 degree C. • 18 hr • Shanking 1000 rpm Transferred 20 μL rxn mix [4 μg] to 100 mL [containing 10 scuds] At time, 24 h and 48 h the ten scuds were scored: A=Alive and Moving actively BA=Barely Alive—Difficulty swimming away; only legs are moving D=Dead—Not moving at all The results of which are shown in FIGS. 8 and 9.

B1: E1: pyrethroid-hydrolyzing carboxylesterase pytZ from Ochrobactrum sp., amino acid SEQ. ID No. 1 (protein)
chain: MTTQTYEHRLKAGAKGAPLFIVFHGTGGDENQFFGLAEQLLPDATIMSPRGDVSEYGAARFFRRTGEGVYDMEDLARATDKMAGFIAALAAEYKTSEVIGLGYSNGANIMANLLIEKGRVEDKAALLHPLVPFRPKDNPALEGAKILMTAGRMDPICPPDLTEALAQYFERQKADVELVWHPGGHELRQTELAAVQSLLAY
modifications: Ochrobactrum sp
[1]
  pNPA hydrolysis: BDL

B2: E5: esterase EstP from Klebsiella sp., amino acid SEQ. ID No. 5 (protein)
chain: MEICTKGSRKHLTSRASEPSYNVPENQYVLYVVSSTLSIVICQLVKVAESKKSRFSGAIEKLNERLDSLKDYRIINRDLVVKDLERLKKRFDTEVINAELSEQLAKINVNLSRSYSEKGYLRLEKATGSENEWWAKKPSQNDDWQQFEPDGYTIFSSRDHYASLEKSYSDYEIEAKIPLPLRRGICAVVLYPEYISRICVLPESRSIQREQENFTKLRDKGIALSKKDWQAKLTIDELAEQEKERATINKRLGYFATEHEKVGIVHKALEPKLICPFQQIEKEWRQCKVKSKSTFPNSMTFVQNPAYQAVHSGFKKLKEQIGLADEDILLSLEKIEAIGLVNMPLLYERWCLLQIIKVLTQAFRYQPEDNWKRKLIANIQGNEEQISIQFFNPSVSRAITLQYEPFLANGKRPDFVLDVEAITKSGNQISKRLVVDAKYYSAAYLKQRGGIGGVIHELYNGKDYSECQENSVFVLHPVLDAVEKVVSPQEWAKDSYLGELSMFDWEPAHHQRQATNYGAVCANPMKSQRYLDEIQRMLGMFLQYGIEDNTSFRGASDDTHAVNFCVSCGSEKVVDVTKSMSSNNQKRWYRCNECTHFTVYTHCGTCNTRLIKNGEYWTYLSLMPMSSINIKCPNCESPV
modifications: Klebsiella
[1]
  pNPA hydrolysis: BDL

B3: E4: pyrethroid-hydrolyzing carboxylesterase MsE1 from Methylobacterium sp., amino acid SEQ. ID No. 4 (protein)
chain: MTQDTTGFIFIREEPGPDTTRPLMLLHGTGGDENDLLPLGRMVAPEAALLAPRGGVSENGMPRFFRRLAEGVFDEADLRRRTGDLAAFVAASRARYGLGAPLALGFSNGANIAASLLMLRPETLTGAVLIRPMVPFAEPPAADLAGRPVLILSGAMDPIVPVENARRLAQQLSASGARVEHRILPAGHGLSQADVSQALAWLRSLPGPEAA
modifications: Methylobacterium
[2]
  Activity units: 39.5
[1]
  pNPA hydrolysis: 30.6 ± 0.0 nmol pNPA/min/1E+8 spores

B4: E2: pyrethroid-hydrolyzing carboxylesterase pnbA from B. subtilis, amino acid SEQ. ID No. 2 (protein, listed as Bacillus subtilis)
chain: MTHQIVTTQYGKVKGTTENGVHKWKGIPYAKPPVGQWRFKAPEPPEVWEDVLDATAYGSICPQPSDLLSLSYTELPRQSEDCLYVNVFAPDTPSKNLPVMVWIHGGAFYLGAGSEPLYDGSKLAAQGEVIVVTLNYRLGPFGFLHLSSFNEAYSDNLGLLDQAAALKWVRENISAFGGDPDNVTVFGESAGGMSIAALLAMPAAKGLFQICAIMESGASRTMTICEQAASTSAAFLQVLGINEGQLDKLHTVSAEDLLKAADQLRIAEKENFQLFFQPALDPKTLPEEPEKAIAEGAASGIPLLIGTTRDEGYLFFTPDSDVHSQETLDAALEYLLGKPLAEKVADLYPRSLESQIHMMTDLLEWRPAVAYASAQSHYAPVWMYREDWHPKKPPYNKAFHALELPFVFGNLDGLERMAKAEITDEVKQLSHTIQSAWITFAKTGNPSTEAVNWPAYHEETRETLILDSEITIENDPESEICRQKLEPSKGE
[2]
  Activity units: 31.4
[1]
  pNPA hydrolysis: 19.7 ± 1.4 nmol pNPA/min/1E+8 spores
